Results reported in paper PMC9482650, “Quantitative fragmentomics allow affinity mapping of interactomes” (Nature Communications, 2022).

Columns and labels:
Experiment in all cases: holdup assay
Parameters in all cases: key: below the threshold = too weak to quantify, mostly under pKd 3.1 to 4
[1] = target: T1, APBA2_2, Q99767
T1 sequence (Q99767 654-744, limits assumed, looked up): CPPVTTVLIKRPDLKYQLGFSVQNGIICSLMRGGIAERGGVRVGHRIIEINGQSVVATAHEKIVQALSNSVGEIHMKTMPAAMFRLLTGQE

[2] = target: ARHGEF12, Q9NZN5-2
ARHGEF12, Q9NZN5-2, sequence (Q9NZN5 other isoform, or with tags, fused parts or gaps): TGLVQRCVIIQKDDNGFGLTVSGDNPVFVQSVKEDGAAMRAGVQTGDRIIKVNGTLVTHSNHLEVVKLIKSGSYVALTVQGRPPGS

[3] = target: T2, DFNB31_2, Q9P202
T2 sequence (Q9P202 274-371, limits assumed, looked up): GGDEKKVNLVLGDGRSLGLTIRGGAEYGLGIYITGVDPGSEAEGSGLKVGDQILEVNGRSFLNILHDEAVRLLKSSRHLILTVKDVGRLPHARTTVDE

[4] = target: FRMPD2_2, Q68DX3
FRMPD2_2, Q68DX3, sequence (Q68DX3 944-1038): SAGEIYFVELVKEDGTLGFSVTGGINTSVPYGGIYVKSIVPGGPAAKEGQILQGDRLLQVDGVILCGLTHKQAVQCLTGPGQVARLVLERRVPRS

[5] = target: FRMPD2_3, Q68DX3
FRMPD2_3, Q68DX3, sequence (Q68DX3 1073-1166): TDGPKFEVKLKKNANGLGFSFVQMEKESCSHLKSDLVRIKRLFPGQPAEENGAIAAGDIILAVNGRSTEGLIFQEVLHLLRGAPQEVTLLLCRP

[6] = target: T3, GRIP1_7, Q9Y3R0
T3 sequence (Q9Y3R0 999-1096, limits assumed, looked up): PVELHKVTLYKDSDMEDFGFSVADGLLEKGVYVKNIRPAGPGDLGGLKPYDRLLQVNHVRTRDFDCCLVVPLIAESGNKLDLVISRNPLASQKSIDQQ

[7] = target: T4, HTRA4, P83105
T4 sequence (P83105 378-476, limits assumed, looked up): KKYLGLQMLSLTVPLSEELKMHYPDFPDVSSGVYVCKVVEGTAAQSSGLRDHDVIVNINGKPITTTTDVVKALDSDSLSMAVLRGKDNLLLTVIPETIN

[8] = target: IL16_3, Q14005
IL16_3, Q14005, sequence (Q14005 1107-1207): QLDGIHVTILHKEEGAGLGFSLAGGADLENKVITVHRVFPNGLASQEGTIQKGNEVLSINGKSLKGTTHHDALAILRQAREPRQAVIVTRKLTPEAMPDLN

[9] = target: Inadl_10, Q8NI35
Inadl_10, Q8NI35, sequence (Q8NI35 1673-1763): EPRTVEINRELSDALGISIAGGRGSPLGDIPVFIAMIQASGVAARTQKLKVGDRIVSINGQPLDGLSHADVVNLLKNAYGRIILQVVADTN

[10] = target: Inadl_5, Q8NI35
Inadl_5, Q8NI35, sequence (Q8NI35 673-780): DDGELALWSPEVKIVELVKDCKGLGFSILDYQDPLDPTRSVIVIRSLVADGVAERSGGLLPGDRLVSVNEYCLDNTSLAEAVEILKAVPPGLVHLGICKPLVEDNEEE

[11] = target: Inadl_8, Q8NI35
Inadl_8, Q8NI35, sequence (Q8NI35 1425-1530): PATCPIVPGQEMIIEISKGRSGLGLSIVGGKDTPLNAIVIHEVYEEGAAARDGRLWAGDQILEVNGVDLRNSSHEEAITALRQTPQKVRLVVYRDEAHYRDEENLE

[12] = target: Inadl_9, Q8NI35
Inadl_9, Q8NI35, sequence (Q8NI35 1530-1615): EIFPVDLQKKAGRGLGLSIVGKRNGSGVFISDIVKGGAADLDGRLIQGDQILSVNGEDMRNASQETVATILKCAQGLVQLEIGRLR

[13] = target: T5, LIN7A, O14910
T5 sequence (O14910 103-200, limits assumed, looked up): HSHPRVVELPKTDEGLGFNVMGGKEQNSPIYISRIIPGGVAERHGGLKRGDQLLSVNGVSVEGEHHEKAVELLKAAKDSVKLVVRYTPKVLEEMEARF

[14] = target: LNX1_3, Q8TBB1
LNX1_3, Q8TBB1, sequence (Q8TBB1 500-596): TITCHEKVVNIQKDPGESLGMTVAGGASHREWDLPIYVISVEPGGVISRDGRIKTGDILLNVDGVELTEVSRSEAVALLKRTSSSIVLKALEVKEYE

[15] = target: T6, LNX2_2, Q8N448
T6 sequence (Q8N448 334-432, limits assumed, looked up): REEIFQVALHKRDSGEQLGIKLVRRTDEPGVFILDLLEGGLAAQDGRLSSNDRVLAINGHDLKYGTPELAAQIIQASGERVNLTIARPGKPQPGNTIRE

[16] = target: MAGI1_1, Q96QZ7
MAGI1_1, Q96QZ7, sequence (Q96QZ7 1-106): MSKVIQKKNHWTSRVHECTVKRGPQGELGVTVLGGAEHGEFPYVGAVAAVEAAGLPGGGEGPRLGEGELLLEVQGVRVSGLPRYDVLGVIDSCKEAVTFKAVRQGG

[17] = target: MAGI1_2, Q96QZ7
MAGI1_2, Q96QZ7, sequence (Q96QZ7 456-580): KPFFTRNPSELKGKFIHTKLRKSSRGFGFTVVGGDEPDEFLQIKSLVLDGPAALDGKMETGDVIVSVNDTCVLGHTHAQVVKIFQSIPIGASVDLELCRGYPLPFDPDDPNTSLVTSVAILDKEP

[18] = target: MAGI3_2, Q5TCQ9
MAGI3_2, Q5TCQ9, sequence (Q5TCQ9 398-503): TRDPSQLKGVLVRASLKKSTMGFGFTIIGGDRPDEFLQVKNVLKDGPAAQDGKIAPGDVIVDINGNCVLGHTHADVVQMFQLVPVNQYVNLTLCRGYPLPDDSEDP

[19] = target: T7, MPDZ_10, O75970
T7 sequence (O75970 1624-1722, limits assumed, looked up): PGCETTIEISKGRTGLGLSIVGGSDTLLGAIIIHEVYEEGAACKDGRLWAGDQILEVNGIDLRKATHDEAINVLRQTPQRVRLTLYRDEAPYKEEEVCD

[20] = target: T8, MPP2, Q14168
T8 sequence (Q14168 180-250, limits assumed, looked up): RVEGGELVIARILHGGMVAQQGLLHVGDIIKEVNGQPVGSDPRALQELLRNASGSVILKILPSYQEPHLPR

[21] = target: T9, NHERF3_4, Q5T2W1
T9 sequence (Q5T2W1 373-468, limits assumed, looked up): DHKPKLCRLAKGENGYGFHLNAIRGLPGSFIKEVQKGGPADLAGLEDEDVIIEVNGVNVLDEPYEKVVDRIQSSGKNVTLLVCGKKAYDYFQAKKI

[22] = target: T10, PCLO, Q9Y6V0
T10 sequence (Q9Y6V0 4491-4600, limits assumed, looked up): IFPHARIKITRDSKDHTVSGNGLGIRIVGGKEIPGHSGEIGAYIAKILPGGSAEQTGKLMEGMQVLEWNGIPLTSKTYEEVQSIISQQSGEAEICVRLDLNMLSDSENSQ

[23] = target: T11, RADIL, Q96JH8
T11 sequence (Q96JH8 971-1071, limits assumed, looked up): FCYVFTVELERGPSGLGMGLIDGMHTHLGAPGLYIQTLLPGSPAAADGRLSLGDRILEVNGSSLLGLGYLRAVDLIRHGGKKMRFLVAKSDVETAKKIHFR

[24] = target: TJP1_2, Q07157
TJP1_2, Q07157, sequence (Q07157 181-274): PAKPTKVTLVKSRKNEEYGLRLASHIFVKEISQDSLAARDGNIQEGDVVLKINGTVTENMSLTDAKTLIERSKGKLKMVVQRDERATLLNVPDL

[25] = target: TJP2_1, Q9UDY2
TJP2_1, Q9UDY2, sequence (Q9UDY2 24-128): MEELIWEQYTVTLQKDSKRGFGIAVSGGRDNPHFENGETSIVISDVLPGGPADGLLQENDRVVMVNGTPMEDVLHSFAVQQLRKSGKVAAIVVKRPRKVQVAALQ

[26] = target: T12, TX1BP3, O14907
T12 sequence (O14907 10-122, limits assumed, looked up): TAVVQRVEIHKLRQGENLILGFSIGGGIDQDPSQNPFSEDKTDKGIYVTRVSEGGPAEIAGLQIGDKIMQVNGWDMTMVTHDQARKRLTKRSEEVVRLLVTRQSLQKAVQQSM

[27] = plain residues with an end cap or a label only (N-terminal biotin on a linker: ado-ado)
[28] = modified: phospho on T at position -2 from the C-terminal residue

Binder: DLLGGGSDSI [TNRC6B, Q9UPQ9]
- pKd [1, 27]: below the threshold
- pKd [2, 27]: 3.71
- pKd [3, 27]: below the threshold
- pKd [4, 27]: below the threshold
- pKd [5, 27]: 3.51
- pKd [6, 27]: below the threshold
- pKd [7, 27]: below the threshold
- pKd [8, 27]: below the threshold
- pKd [9, 27]: below the threshold
- pKd [10, 27]: below the threshold
- pKd [11, 27]: below the threshold
- pKd [12, 27]: below the threshold
- pKd [13, 27]: below the threshold
- pKd [14, 27]: below the threshold
- pKd [15, 27]: below the threshold
- pKd [16, 27]: below the threshold
- pKd [17, 27]: below the threshold
- pKd [18, 27]: below the threshold
- pKd [19, 27]: below the threshold
- pKd [20, 27]: below the threshold
- pKd [21, 27]: below the threshold
- pKd [22, 27]: below the threshold
- pKd [23, 27]: below the threshold
- pKd [24, 27]: 3.62
- pKd [25, 27]: below the threshold
- pKd [26, 27]: below the threshold

Binder: SRSRRRETAL [HPV33-E6_-2P, P06427]
- pKd [1, 28]: below the threshold
- pKd [2, 28]: below the threshold
- pKd [3, 28]: below the threshold
- pKd [4, 28]: below the threshold
- pKd [5, 28]: below the threshold
- pKd [6, 28]: below the threshold
- pKd [7, 28]: below the threshold
- pKd [8, 28]: below the threshold
- pKd [9, 28]: below the threshold
- pKd [10, 28]: below the threshold
- pKd [11, 28]: below the threshold
- pKd [12, 28]: below the threshold
- pKd [13, 28]: below the threshold
- pKd [14, 28]: below the threshold
- pKd [15, 28]: below the threshold
- pKd [16, 28]: below the threshold
- pKd [17, 28]: below the threshold
- pKd [18, 28]: below the threshold
- pKd [19, 28]: below the threshold
- pKd [20, 28]: below the threshold
- pKd [21, 28]: below the threshold
- pKd [22, 28]: below the threshold
- pKd [23, 28]: below the threshold
- pKd [24, 28]: below the threshold
- pKd [25, 28]: below the threshold
- pKd [26, 28]: below the threshold
